What all share (experiment): cell_activity
Data set [1] relates to mouse TRB1-TALEN right (artificial (Xanthomonas TALE-FokI)?). The following applies: SSA reporter assay in HEK293T, pair with left TALEN; site given as top strand.
In data set [2] the test system is mouse TRA2-TALEN right (artificial (Xanthomonas TALE-FokI)?). The following applies: SSA reporter assay in HEK293T, pair with left TALEN; site given as top strand.
For data set [3], the system named is mouse TRB2-TALEN right (artificial (Xanthomonas TALE-FokI)?). The following applies: SSA reporter assay in HEK293T, pair with left TALEN; site given as top strand.
In data set [4] the test system is mouse TRA2-TALEN left (artificial (Xanthomonas TALE-FokI)?). The following applies: SSA reporter assay in HEK293T, pair with right TALEN.
The test system of data set [5] is mouse TRB1-TALEN left (artificial (Xanthomonas TALE-FokI)?). The following applies: SSA reporter assay in HEK293T, pair with right TALEN.
Data set [6] has as its system mouse TRB2-TALEN left (artificial (Xanthomonas TALE-FokI)?). The following applies: SSA reporter assay in HEK293T, pair with right TALEN.

In the case of “AAAAGCAGAGATTGCAAACA (double strand) [mouse TRB1 right target]”, the activity (fold vs ZFA36) in data set [1] turned out to be 3.79. “AATGTGCCGAAAACCATGGA (double strand) [mouse TRA2 right target]” yielded an activity (fold vs ZFA36) in data set [2] of 3.09. As to “GGAGCTGAGCTGGTGGGTGA (double strand) [mouse TRB2 right target]”, in data set [3], the activity (fold vs ZFA36) is 3.41. “TCTGCCTGTTCACCGACT (double strand) [mouse TRA2 left target]” came in with an activity (fold vs ZFA36) in data set [4] of 3.09. With “TGACTCCACCCAAGGTCTCC (double strand) [mouse TRB1 left target]”, the activity (fold vs ZFA36) in data set [5] worked out at 3.79. Sequence “TGTGCTTGGCCAGGGGCTTC (double strand) [mouse TRB2 left target]” had an activity (fold vs ZFA36) in data set [6] of 3.41.

These data come from patent publication US20200362323.
